From publication PMC8417825, “Light-Induced Dynamic Change of Phytochrome B and Cryptochrome 1 Stabilizes SINATs in Arabidopsis” (Frontiers in Plant Science, 2021)

T1: phyB-C-GST (Arabidopsis thaliana, UniProt P14713 646-1172)
T1 construct: phytochrome B (phyB), Arabidopsis thaliana, C-terminus, amino acids 646-1,172; Cloned into pGEX-4T-1; also called C-terminus of phytochrome B; source: E. coli BL21 (DE3) pLysS, purified (glutathione resin)
T1 sequence (looked up): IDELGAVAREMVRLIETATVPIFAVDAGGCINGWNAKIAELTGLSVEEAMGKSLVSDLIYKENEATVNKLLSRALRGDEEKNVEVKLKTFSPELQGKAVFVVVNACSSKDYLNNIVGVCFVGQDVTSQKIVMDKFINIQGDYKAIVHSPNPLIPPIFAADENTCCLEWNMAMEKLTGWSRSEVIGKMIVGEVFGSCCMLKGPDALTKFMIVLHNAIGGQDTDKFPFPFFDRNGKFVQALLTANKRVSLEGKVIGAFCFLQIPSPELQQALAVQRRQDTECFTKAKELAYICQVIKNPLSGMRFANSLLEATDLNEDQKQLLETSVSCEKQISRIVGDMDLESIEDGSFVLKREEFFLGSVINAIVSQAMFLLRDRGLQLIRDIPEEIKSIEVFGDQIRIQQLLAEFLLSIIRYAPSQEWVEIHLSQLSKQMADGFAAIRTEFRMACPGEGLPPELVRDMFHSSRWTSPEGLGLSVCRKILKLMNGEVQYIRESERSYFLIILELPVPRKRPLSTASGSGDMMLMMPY

T2: phyB-N-GST (Arabidopsis thaliana, UniProt P14713 1-645)
T2 construct: phytochrome B (phyB), Arabidopsis thaliana, N-terminus, amino acids 1-645; also called N-terminus of phytochrome B; source: E. coli, purified (glutathione resin)
T2 sequence (looked up): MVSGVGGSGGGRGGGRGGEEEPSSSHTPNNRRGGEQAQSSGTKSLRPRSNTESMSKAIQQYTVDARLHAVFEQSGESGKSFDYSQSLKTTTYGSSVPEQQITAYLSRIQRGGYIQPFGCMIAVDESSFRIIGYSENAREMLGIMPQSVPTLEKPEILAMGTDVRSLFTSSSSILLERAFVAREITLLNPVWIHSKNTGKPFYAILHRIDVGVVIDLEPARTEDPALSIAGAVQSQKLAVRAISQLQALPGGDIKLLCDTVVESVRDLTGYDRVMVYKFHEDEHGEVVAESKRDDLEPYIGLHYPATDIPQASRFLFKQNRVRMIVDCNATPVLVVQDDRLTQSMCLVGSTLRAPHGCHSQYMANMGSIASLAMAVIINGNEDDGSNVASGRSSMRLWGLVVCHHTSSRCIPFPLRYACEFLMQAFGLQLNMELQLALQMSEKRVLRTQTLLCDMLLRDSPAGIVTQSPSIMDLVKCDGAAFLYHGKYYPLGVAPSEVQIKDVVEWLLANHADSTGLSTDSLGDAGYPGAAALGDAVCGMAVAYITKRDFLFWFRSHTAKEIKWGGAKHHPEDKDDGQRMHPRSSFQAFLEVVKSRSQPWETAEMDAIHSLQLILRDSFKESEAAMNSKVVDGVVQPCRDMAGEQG

B1: SINAT2-His (natural protein, Arabidopsis thaliana, UniProt Q9M2P4 1-308, looked up)
chain: MAPGGSALKEVMESNSTGMDYEVKTAKVEVNNNKPTKPGSAGIGKYGIHSNNGVYELLECPVCTNLMYPPIHQCPNGHTLCSNCKLRVQNTCPTCRYELGNIRCLALEKVAESLEVPCRYQNLGCHDIFPYYSKLKHEQHCRFRPYTCPYAGSECSVTGDIPTLVVHLKDDHKVDMHDGCTFNHRYVKSNPHEVENATWMLTVFNCFGRQFCLHFEAFQLGMAPVYMAFLRFMGDENEAKKFSYSLEVGAHGRKLTWQGIPRSIRDSHRKVRDSQDGLIIPRNLALYFSGGDRQELKLRVTGRIWKEE
notes: SINAT2 (SINA of Arabidopsis thaliana 2), At3g58040; Printed both as SINAT2-His (pull-down) and His-SINAT2 (ubiquitination assay); also called His-SINAT2

Assays:
Experiment in all cases: pull-down; in vitro pull-down: about 5 ug GST-tagged protein on glutathione resin, about 2 ug His-tagged protein added, 1 h at 4°C; washed with 1x PBS, 0.1% Triton X-100; anti-His blot
Conditions in all cases: both partners purified
phyB-C-GST = target: T1, phyB-C-GST
phyB-N-GST = target: T2, phyB-N-GST
CRY1-N-GST = target: T3, CRY1-N-GST (Arabidopsis thaliana, UniProt Q43125 1-490)
T3 construct: cryptochrome 1 (CRY1), Arabidopsis thaliana, N-terminus, amino acids 1-490; Cloned into pGEX-4T-1; also called N-terminus of cryptochrome 1; source: E. coli BL21 (DE3) pLysS, purified (glutathione resin)
T3 sequence (Q43125 1-490): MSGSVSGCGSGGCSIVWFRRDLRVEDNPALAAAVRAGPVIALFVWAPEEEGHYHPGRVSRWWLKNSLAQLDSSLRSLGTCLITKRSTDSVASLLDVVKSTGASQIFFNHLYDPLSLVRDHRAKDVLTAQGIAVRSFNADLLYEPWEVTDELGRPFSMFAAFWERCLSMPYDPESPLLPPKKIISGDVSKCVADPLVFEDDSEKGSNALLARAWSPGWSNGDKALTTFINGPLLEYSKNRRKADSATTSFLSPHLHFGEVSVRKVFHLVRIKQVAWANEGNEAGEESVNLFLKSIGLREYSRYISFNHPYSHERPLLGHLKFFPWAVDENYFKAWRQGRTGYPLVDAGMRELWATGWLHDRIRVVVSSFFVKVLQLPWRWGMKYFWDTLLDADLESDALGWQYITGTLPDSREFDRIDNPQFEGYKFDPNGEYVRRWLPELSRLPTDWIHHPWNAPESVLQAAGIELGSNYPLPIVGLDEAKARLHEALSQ

SINAT2-His = target: B1

| binding result (phyB-C-GST) | binding result (phyB-N-GST) | binding result (CRY1-N-GST) | binding result (SINAT2-His) | Binder |
| --- | --- | --- | --- | --- |
| binds | binds | binds | – | B1 |
| – | – | – | binds | CRY1-C-GST (domain or fragment, Arabidopsis thaliana, UniProt Q43125 491-681, looked up, cryptochrome 1 (CRY1), Arabidopsis thaliana, C-terminus, amino acids 491-681; Cloned into pGEX-4T-1; also called C-terminus of cryptochrome 1; source: E. coli BL21 (DE3) pLysS, purified (glutathione resin)) MWQLEAASRAAIENGSEEGLGDSAEVEEAPIEFPRDITMEETEPTRLNPNRRYEDQMVPSITSSLIRPEEDEESSLNLRNSVGDSRAEVPRNMVNTNQAQQRRAEPASNQVTAMIPEFNIRIVAESTEDSTAESSSSGRRERSGGIVPEWSPGYSEQFPSEENGIGGGSTTSSYLQNHHEILNWRRLSQTG |
